Test results from article PMC4642984, “CRY Drives Cyclic CK2-Mediated BMAL1 Phosphorylation to Control the Mammalian Circadian Clock” (PLoS Biology, 2015).

Molecular target: T1, ELucC-BMAL1 (mouse, UniProt Q9WTL8-2 1-625)
T1 construct: full-length mouse BMAL1 cDNA ligated downstream of ELucC; also called ELucC-BMAL1-WT (full length); ELucC-mBMAL1; source: Cos7 cells, transfected, in living cells; not shown: ELucC (C-terminal fragment of Emerald luciferase), N-terminal, kept
Assay: split reporter (BiFC, NanoBiT); Split Luc complementation in living Cos7 cells transfected with ELucN-CK2β and ELucC-BMAL1 (WT or mutant) together with pcDNA, Myc-HA-CRY1, Myc-CRY2 or FLAG-CRY1 (WT or Cd1-4); real-time bioluminescence, averaged peak values
Conditions: partners not purified

T1 sequence (Q9WTL8 other isoform, or with tags, fused parts or gaps): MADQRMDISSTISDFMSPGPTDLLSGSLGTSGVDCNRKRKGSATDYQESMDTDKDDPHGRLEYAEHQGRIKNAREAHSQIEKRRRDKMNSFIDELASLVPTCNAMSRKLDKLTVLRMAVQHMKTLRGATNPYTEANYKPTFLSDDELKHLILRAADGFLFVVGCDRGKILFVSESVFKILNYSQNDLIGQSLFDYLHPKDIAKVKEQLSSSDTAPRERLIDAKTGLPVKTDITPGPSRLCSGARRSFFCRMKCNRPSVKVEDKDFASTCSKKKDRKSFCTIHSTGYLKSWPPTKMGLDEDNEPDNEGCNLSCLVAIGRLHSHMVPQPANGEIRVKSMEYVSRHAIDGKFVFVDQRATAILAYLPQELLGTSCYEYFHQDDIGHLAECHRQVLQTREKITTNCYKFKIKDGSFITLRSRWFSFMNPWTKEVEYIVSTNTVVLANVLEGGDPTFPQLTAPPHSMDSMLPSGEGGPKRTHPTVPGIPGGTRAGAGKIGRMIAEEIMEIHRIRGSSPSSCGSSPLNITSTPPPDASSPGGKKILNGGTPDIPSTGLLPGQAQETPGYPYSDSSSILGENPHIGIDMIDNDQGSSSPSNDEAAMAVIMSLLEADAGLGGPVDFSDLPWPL

- fold increase of Split Luc bioluminescence in the presence of CRY proteins: ~4 fold
- fold increase of Split Luc bioluminescence on over-expression of Myc-tagged CRY1 or CRY2: ~6 fold
B1: ELucN-CK2β (natural protein)
chain: not shown
notes: full-length human CK2β cDNA ligated downstream of ELucN; Vector backbone pcDNA4/V5-His (B) or pcDNA3.1; also called CMV-ELucN-CK2β; source: Cos7 or U-2OS cells, transfected, in living cells; not shown: ELucN (N-terminal fragment of Emerald luciferase), N-terminal, kept
